Test results published in US20200323888A1, “INHIBITORS” (VESTLANDETS INNOVASJONSSELSKAP AS, priority 2017, published 2020).

Tests used:
Naa80 [1] = molecular target: T1, Naa80 (Homo sapiens, UniProt Q93015); assay: Naa80 substrate screening assay (peptide acetylation by purified Naa80); format: biochemical; settings: linear range of enzyme concentration
T1 construct: The PCR product containing the CDS was inserted into the TOPO TA vector; made in house; host or cells: E. coli BL21 Star (DE3)
T1 sequence (Q93015 1-308 isoform Q93015-2): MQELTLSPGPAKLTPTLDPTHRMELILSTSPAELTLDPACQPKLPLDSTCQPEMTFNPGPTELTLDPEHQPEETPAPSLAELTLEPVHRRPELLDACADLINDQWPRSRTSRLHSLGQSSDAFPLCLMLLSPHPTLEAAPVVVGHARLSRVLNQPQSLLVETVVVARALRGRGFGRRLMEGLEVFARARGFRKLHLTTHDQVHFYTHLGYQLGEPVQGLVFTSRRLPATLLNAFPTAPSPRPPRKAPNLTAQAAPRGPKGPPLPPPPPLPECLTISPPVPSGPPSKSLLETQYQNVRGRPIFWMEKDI

Naa80 [2] = molecular target: T1, Naa80; assay: as above; format: biochemical; settings: Naa80 mediated acetylation of 24-mer peptide substrates
Text: In order to investigate the in vitro activity of Naa80 further, an enzyme activity screening assay on purified Naa80 was undertaken using a broad substrate library (including amino acids, nucleosides, coenzymes, amines, saccharides, vitamins, antioxidants and peptides) modified from Kuhn et al. (Kuhn et al. (2013) “Broad-substrate screen as a tool to identify substrates for bacterial Gcn5-related N-acetyltransferases with unknown substrate specificity”. Protein Science 22(2):222-230). Among all of the potential substrates tested, only the peptides with N-terminal sequence of MDEL24 (SEQ ID NO: 45), DDDI24 (SEQ ID NO: 41) and EEEI24 (SEQ ID NO: 40) were acetylated, as shown in the following table:
The 24-mer substrate peptides differed in their 7 N-terminal amino acids while the 17 C-terminal residues (RWGRPVGRRRRPVRVYP, SEQ ID NO: 39) were kept constant: EEEI24 (EEEIAAL, SEQ ID NO: 40), DDDI24 (DDDIAAL, SEQ ID NO: 41), MDDD24 (MDDDIAA, SEQ ID NO: 42), SESS24 (SESSSKS, SEQ ID NO: 43), AVFA24 (AVFADLD, SEQ ID NO: 44), MDEL24 (MDELFPL, SEQ ID NO: 45), MELL24 (MELLSPP, SEQ ID NO: 46), MLGT24 (MLGTGPA, SEQ ID NO: 47), MTNK24 (MTNKSSL, SEQ ID NO: 48), MLGP24 (MLGPEGG, SEQ ID NO: 49), MAPL24 (MAPLDLD, SEQ ID NO: 50), MKKS24 (MKKSYSG, SEQ ID NO: 51).
Both MDEL (p65, SEQ ID NO: 8) and MDDD24 (unprocessed β-actin, SEQ ID NO: 42) represent cellular NatB substrates.

Naa10 = molecular target: T2, Naa10 (Homo sapiens, UniProt P41227); settings: hNaa10, catalytic subunit of NatA; Foyn et al. 2013; cited from earlier work
T2 sequence (P41227 1-235): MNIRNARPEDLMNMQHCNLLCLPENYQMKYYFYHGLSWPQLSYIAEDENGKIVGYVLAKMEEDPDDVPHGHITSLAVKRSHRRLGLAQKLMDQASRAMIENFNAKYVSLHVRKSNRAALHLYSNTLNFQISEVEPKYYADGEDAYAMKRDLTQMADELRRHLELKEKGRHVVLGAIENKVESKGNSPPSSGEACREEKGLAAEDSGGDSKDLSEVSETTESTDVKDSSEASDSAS

Naa80 [3] = molecular target: T1, Naa80; assay: Nt-acetylation inhibitor assay for Naa80; format: biochemical; settings: Naa80
Experimental: FIG. 10: (A) IC50 values for inhibitors measured in an Nt-acetylation inhibitor assay for Naa80. (B) Ki-values for CoA-Ac-DDDI-NH2 (SEQ ID NO: 6) for different human NATs measured in an Nt-acetylation inhibitor assay. All reactions were performed at least three times and in triplicate; errors bars represent standard deviation of each measurement.
The IC50 values for these compounds were tested as described in Foyn H, et al. (2013) “Design, Synthesis, and Kinetic Characterization of Protein N-Terminal Acetyltransferase Inhibitors”. ACS Chem Biol 8:1121-1127; and Foyn H, et al. (2017) “DTNB-Based quantification of in vitro enzymatic N-terminal acetyltransferase activity”, Methods Mol. Biol. 1574:9-15. Briefly, a colorimetric acetylation assay, 5,5′-dithiobis-(2-nitrobenzoic acid) (DTNB) assay was used to measure the catalytic activity of NATs after incubation with NAT inhibitors. In the DTNB assay, thiols present in the enzymatic product, CoA, cleaves DTNB and produces 2-nitro-5-thiobenzoate (NTB-), which absorbs light with a wavelength of 412 nm. NTB- forms in a 1:1 molar ratio to the thiol groups present in the sample. Therefore, NTB- was quantified by measuring the absorbance at 412 nm and indirectly measures peptide Nt-acetylation. […] After 30 min-60 min incubation at 37° C., the enzyme activity was quenched with quenching buffer (3.2 M guanidinium-HCl, 100 mM sodium phosphate dibasic pH 6.8). Triplicates were run for all positive samples, while negative controls were duplicated. As a negative control, reactions without enzyme were incubated at 37° C. before the reaction was quenched and added enzyme. In order to measure CoA production, 2 mM DTNB (dissolved in 100 mM sodium phosphate dibasic pH 6.8 and 10 mM EDTA) was added to the quenched reaction and the absorbance at 412 nm was measured with a spectrophotometer (Epoc). Background absorbance (determined in negative controls) was subtracted from the absorbance determined in each individual reaction. Thiophenolate production was quantified assuming ε=13.7×103 M−1 cm−1. For NatA and NatB enzyme complex inhibition, immunoprecipitation was performed using Naa15 ab (custom made, Arnesen T, Anderson D, Baldersheim C, Lanotte M, Varhaug J E, Lillehaug J R. (2005) Identification and characterization of the human ARD1-NATH protein acetyltransferase complex. Biochemical J 386(Pt 3):433-43.) or Naa20 ab (Nat5, abnova) respectively and protein A/G magnetic agarose beads (Millipore). A similar Nt-acetylation reaction was performed as previously described and the enzymatic activity was quenched with a final concentration of 1% TFA and analyzed by HPLC (Evjenth R, Van Damme P, Gevaert K, Arnesen T (2013) HPLC-based Quantification of in vitro N-terminal Acetylation. Methods Mol Biol 981:95-102.).
We then pursued Naa80 bisubstrate analogue inhibitors based on the results of the substrate screening and the sequences of the cellular substrates processed β- and γ-actin. We synthesized bisubstrate conjugates of Coenzyme A coupled to the tetrapeptides MDEL-NH2 (SEQ ID NO: 8), DDDI-NH2 (SEQ ID NO: 6), EEEI-NH2 (SEQ
ID NO: 7), and MLGT-NH2 (SEQ ID NO: 52) via an acetamide (Ac) linker.
The following additional Naa80 bisubstrate analogue inhibitors were produced and tested as described above: […]

[4] = molecular target: T3, NatA complex (Naa15-Naa10) (human, UniProt P41227 1-235; Q9BXJ9 1-866); assay: comparison of Ki values from Nt-acetylation inhibition assays
T3 sequence (looked up) 1: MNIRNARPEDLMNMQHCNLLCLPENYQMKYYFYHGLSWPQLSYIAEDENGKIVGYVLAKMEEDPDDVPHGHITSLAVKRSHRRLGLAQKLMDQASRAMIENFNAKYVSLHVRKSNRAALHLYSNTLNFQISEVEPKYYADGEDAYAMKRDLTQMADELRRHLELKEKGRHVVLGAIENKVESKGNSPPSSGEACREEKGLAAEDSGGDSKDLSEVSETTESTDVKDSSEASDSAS
T3 sequence (looked up) 2: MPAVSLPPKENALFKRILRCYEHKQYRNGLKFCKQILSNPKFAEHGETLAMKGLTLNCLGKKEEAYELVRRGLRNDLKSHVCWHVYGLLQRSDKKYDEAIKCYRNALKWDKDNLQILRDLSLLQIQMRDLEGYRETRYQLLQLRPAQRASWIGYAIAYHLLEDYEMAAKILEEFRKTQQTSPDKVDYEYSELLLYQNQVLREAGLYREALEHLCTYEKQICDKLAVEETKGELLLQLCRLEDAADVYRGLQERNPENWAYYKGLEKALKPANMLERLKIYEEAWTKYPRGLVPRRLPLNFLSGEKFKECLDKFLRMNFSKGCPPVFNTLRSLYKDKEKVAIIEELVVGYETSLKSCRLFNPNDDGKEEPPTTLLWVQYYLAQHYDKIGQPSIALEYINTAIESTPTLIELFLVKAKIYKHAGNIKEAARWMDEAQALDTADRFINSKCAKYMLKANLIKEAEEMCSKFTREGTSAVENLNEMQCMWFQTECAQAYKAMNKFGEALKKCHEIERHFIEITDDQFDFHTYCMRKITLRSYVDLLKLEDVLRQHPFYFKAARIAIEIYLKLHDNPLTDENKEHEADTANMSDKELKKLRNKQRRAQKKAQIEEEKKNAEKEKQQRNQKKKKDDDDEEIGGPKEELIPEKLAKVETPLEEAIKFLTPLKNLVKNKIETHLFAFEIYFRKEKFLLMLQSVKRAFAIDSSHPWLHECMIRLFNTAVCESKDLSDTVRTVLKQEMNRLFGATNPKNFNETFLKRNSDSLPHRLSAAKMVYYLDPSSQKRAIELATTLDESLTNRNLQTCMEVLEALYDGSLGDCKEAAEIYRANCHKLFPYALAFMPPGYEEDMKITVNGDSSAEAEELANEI

NatB = NatB (Homo sapiens, UniProt P61599); assay: Ki calculated by Cheng-Prusoff from IC50 of Nt-acetylation inhibition assay
Sequence of NatB (P61599 whole entry): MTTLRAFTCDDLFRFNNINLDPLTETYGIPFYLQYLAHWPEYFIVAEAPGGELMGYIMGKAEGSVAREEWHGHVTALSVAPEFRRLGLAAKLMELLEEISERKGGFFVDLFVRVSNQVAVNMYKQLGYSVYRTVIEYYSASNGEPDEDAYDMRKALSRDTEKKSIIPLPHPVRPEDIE

Naa50 (human) = Naa50 (human) (UniProt Q9GZZ1); assay: as above
Naa40 = Naa40 (Homo sapiens, UniProt Q86UY6); assay: as above
[5] = molecular target: T3, NatA complex (Naa15-Naa10); assay: as above
Naa10 (monomeric) = molecular target: T4, Naa10 (monomeric) (human, UniProt P41227 1-235, limits assumed); assay: as above
T4 construct: also called hNaa10; Ard1
T4 sequence (looked up): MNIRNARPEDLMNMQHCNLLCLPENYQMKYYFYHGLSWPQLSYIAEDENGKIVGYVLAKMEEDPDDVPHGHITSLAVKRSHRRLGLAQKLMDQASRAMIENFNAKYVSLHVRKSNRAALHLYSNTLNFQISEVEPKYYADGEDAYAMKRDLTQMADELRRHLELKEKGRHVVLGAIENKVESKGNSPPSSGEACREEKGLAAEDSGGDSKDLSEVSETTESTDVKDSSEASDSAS

Naa30 = Naa30 (UniProt Q147X3); assay: as above
Sequence of Naa30 (Q147X3 whole entry): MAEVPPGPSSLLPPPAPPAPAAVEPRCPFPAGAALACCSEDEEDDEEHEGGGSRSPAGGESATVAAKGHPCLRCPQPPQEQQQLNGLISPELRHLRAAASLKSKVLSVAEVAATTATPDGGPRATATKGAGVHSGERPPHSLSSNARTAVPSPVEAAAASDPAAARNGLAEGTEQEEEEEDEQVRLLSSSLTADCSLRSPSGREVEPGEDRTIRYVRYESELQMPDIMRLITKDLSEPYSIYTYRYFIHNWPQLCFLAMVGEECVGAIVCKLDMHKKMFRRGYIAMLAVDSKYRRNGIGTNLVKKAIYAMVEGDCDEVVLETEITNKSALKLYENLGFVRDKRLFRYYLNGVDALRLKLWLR

Naa60 = Naa60 (Homo sapiens, UniProt Q9H7X0); assay: as above
[6] = molecular target: T3, NatA complex (Naa15-Naa10); assay: cell-based or functional assay

Question: Which “higher product formation compared to second best substrate MDDD24” value (Naa80 [1]) does the source give for “MDEL24: 24-mer substrate peptide: N-terminal MDELFPL (SEQ ID NO: 45) plus constant RWGRPVGRRRRPVRVYP (MDELFPLRWGRPVGRRRRPVRVYP)” here?
Answer: 5 fold

Question: What about the Product formation (Naa80 [2]) of the same compound?
Answer: 119 (±5.61) μM

Question: Which IC50 (Naa10) does the source give for `CC[C@H](C)[C@H](NC(=O)[C@H](CCC(=O)O)NC(=O)[C@H](CCC(=O)O)NC(=O)[C@H](CCC(=O)O)NC(=O)CSCCNC(=O)CCNC(=O)C(O)C(C)(C)COP(=O)(O)OP(=O)(O)OCC1OC(n2cnc3c(N)ncnc32)C(O)C1OP(=O)(O)O)C(N)=O` (stereo partly shown) [CoA-Ac-EEEI-NH2] here?
Answer: 10.1 µM

Question: What about the IC50 (Naa80 [3]) of the same compound?
Answer: 1.16 µM

Question: Which fold more potent towards NatA than all the other NATs tested [4] does the source give for CoA-Ac-SSNleP-NH2 (peptide) here?
Answer: > 100 fold

Question: What about the Ki (NatB) of the same compound?
Answer: 41.6 µM

Question: What about the Ki (Naa50 (human)) of the same compound?
Answer: 17.7 µM

Question: What about the Ki (Naa40) of the same compound?
Answer: 41.9 µM

Question: And the Ki [5]?
Answer: 0.143 µM

Question: What about the Ki (Naa10 (monomeric)) of the same compound?
Answer: 98.9 µM

Question: And the Ki (Naa30)?
Answer: 132 µM

Question: And the Ki (Naa60)?
Answer: 3.1 µM

Question: What about the IC50 (µM), Nt-acetylation inhibition [6] of the same compound?
Answer: 1.46 µM
